Where “and” joins values, the source holds several entries; their conditions need not be identical. Identical values can stand only once. Like-named read-outs stand apart in the source and are kept apart here. Each block holds one molecule with its values, some of them ahead of it.
Tests used:
Go [1] = target: T1, Go (Bos taurus, UniProt P08239)
Procedure: Trimeric Go was purified to homogeneity from bovine brain as described (Katada et al., FEBS Lett. 213:353-358, 1987). This Go preparation was stored in 20 mM Hepes/NaOH (pH 7.4), 1 mM EDTA, and 0.7% CHAPS, and diluted ≥10 fold for assays.
GTPγS binding to Go was assayed in a buffer containing 50 mM Hepes/NaOH (pH 7.4), 100 μM EDTA, 120 μM MgCl2, and 60 nM [^35 S]GTPγS (DuPont-New England Nuclear) at 37° C., and the fraction of total Go bound to GTPγS was measured as described (Okamoto et al., Cell 62:709-717, 1990). […] The total amount of Go in a given preparation was defined as the saturation amount of GTPγS bound to Go following a 30-min incubation of Go with 10 mM Mg^2+ and ≥60 nM GTPγS at 30° C.
In the experiment shown in FIG. 1(b), 10 nM Go was incubated with water or 100 μM of each peptide for 2 min, and the amount of GTPγS bound to Go at the end of this period was measured. In the experiment shown in FIG. 1(c), 10nM Go was incubated with water (O) or 100 μM peptide 20 (SEQ ID NO: 1) (.oval-solid.), and GTPγS binding was measured at the indicated times. […] GTPγS binding to Go in the presence or absence of peptide 20 (SEQ ID NO: 1) obeyed first-order kinetics according to the equation
(B is the binding at time t; BT is the total binding observable at infinite time; and kapp is the rate constant for GTPγS binding).
In this experiment, 10 nM Go was incubated with various concentrations of [sequence] (peptide 20, SEQ ID NO: 1; .quadrature.), [sequence] (H-deleted, SEQ ID NO: 14; .diamond.), [sequence] (HH-deleted, SEQ ID NO: 15; .quadrature.), [sequence] (RHLSK-deleted, SEQ ID NO: 16; .diamond-solid.), or [sequence] (KQYTSI-added, SEQ ID NO: 17; .box-solid.), and GTPγS binding to Go at 2 min. was measured.

[2] = test system: Go reconstituted in phospholipid vesicles; test: GTPγS binding to Go reconstituted in phospholipid vesicles; format: biochemical, bovine; settings: FIG. 1(e)
Procedure: (§1) Biophys. Acta 161:1280-1285, 1989.
GTPγS binding to peptides was negligible.
Reconstitution of Go into phospholipid vesicles was accomplished with 1 mg/ml of phosphatidylcholine, using the gel filtration method (Nishimoto et al., J. Biol. Chem. 264:14029-14038, 1989). In a final incubation for GTPγS binding, 5 nM of reconstituted Go was used.
As illustrated in FIG. 1(e), Go reconstituted in phospholipid vesicles was incubated with transmembrane region-connected peptide 20 ([…], SEQ ID NO: 18; .quadrature.) or the partial sequence of the APP transmembrane domain alone (TVIVITLVML, SEQ ID NO: 7; .quadrature.). Transmembrane region-connected peptide 20 (SEQ ID NO: 18) was also incubated with Go in the absence of phospholipids and the presence of 0.07% CHAPS (.diamond-solid.). The transmembrane region-connected peptide 20 (SEQ ID NO: 18) stimulated Go reconstituted in phospholipid vesicles with a potency 10 times greater than that of peptide 20 (SEQ ID NO: 1). […]
Preactivation of pertussis toxin (Funakoshi, Japan) was carried out by treating the toxin with 100 μM ATP and 1 mM DTT for 10 min at 30° C. […] Increasing concentrations of peptide 20 (SEQ ID NO: 1) were incubated for 2 min with Go reconstituted in phospholipid vesicles which had been treated with pertussis toxin in the presence (.diamond-solid.) or absence (.quadrature.) of NAD, and GTPγS binding to Go was measured.

[3] = target: Trimeric Go purified from bovine brain (bovine) (UniProt P08239); test: 22C11-precipitate of Sf9 membranes incubated with 1 µg purified Go, immunoblot
APP-Go complex = target: T2, APP-Go complex (Bos taurus, UniProt P08239); test: 22C11 (anti-APP) immunoprecipitation of APP and co-precipitation of Go from solubilized brain membranes; format: binding, bovine; settings: 10 μM peptide, FIG. 2d
T2 construct: APP immunoprecipitated with 22C11, co-precipitated Go alpha detected by GC/2
Procedure: As a control, 2 μg/ml of rabbit IgG was used. After overnight shaking at 4° C., the immunoprecipitated sample was centrifuged at 5000 rpm for 5 min. The pellet was washed three times with ice-cold buffer C and the final pellet was applied to SDS-PAGE. Electroblotting onto a PVDF sheet was performed as described (Okamoto et al., J. Biol. Chem. 266:1085-1091, 1991). After blocking with PBS containing 2% skim milk and 1% BSA, the sheet was incubated with the first antibody [1 μg/ml of 22C11; 1/1000 dilution of anti-Go α monoclonal antibody GC/2 (DuPont-New England Nuclear); 1/1000 dilution of 1C1, a monoclonal antibody against the C-terminal peptide 677-695 of APP695 ] for 4 h, and then exposed to horseradish peroxidase-conjugated goat IgG reactive for mouse or rabbit immunoglobulins for 2-4 h at room temperature. The antigenic bands were detected with an ECL detection kit (Amersham). YL1/2 (SERA Lab), an anti-tubulin antibody, was used at 1:500 dilution for immunodetection.
In this experiment, solubilized brain membranes were incubated with 22C11-coated beads in the presence of 10 μM peptide 20 (SEQ ID NO: 1; 2nd and 5th lanes) or 10 μM of the control peptide, peptide677-695 of APP (SEQ ID NO: 13; 3rd and 6th lanes), or in the absence of both of these peptides (1st and 4th lanes). In this experiment, an anti-mouse IgG antibody different from that used in (a) was employed.

Gi1 = test: Effect of peptide on G proteins other than Go: Gi1; format: biochemical; settings: data not shown
Source text: as §1

Gi3 = test: Effect of peptide on G proteins other than Go: Gi3; format: biochemical; settings: data not shown
Source text: as §1

GS = test: Effect of peptide on G proteins other than Go: GS; format: biochemical; settings: data not shown
Source text: as §1

c-Ki-ras p21 = test: Effect of peptide on low molecular weight G protein c-Ki-ras p21; format: biochemical; settings: data not shown
Source text: as §1

Go [4] = target: T1, Go; test: Storage stability of the Go-activating ability of the peptide; format: physicochemical, bovine; settings: storage at either -4° C. or -20° C.
Gi2 = test: Effect of peptide on G proteins other than Go: Gi2; format: biochemical; settings: data not shown
Source text: as §1

smg p25A = test: Effect of peptide on low molecular weight G protein smg p25A; format: biochemical; settings: data not shown
Source text: as §1

[5] = target: Trimeric Go purified from bovine brain (bovine) (UniProt P08239)
[6] = 10 nM Go, various peptide concentrations, 2 min, FIG. 1(d)

T1 sequence (P08239 whole entry): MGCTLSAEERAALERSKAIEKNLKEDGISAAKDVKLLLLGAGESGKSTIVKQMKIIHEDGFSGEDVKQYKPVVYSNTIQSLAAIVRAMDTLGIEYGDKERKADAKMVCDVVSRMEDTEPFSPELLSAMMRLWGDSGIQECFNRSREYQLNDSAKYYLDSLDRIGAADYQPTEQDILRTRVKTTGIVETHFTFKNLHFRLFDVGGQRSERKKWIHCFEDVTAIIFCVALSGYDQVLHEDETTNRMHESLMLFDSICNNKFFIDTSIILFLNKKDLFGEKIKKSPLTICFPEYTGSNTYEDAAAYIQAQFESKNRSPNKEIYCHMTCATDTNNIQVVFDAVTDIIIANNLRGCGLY
T1 sequence (P62871 whole entry partner): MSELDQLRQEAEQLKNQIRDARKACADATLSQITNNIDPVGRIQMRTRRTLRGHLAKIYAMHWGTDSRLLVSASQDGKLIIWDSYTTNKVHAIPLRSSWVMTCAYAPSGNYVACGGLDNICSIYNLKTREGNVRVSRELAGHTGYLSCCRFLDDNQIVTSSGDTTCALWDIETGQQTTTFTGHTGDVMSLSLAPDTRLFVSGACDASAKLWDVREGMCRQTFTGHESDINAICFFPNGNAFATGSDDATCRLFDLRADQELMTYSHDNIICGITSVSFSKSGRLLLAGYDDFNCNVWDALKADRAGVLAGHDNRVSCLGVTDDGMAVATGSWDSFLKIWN
T1 sequence (P63212 1-68 partner): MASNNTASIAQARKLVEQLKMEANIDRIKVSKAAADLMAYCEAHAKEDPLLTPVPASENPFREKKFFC
T2 sequence (P08239 whole entry): as the sequence (P08239 whole entry) above
T2 sequence (Q28053 whole entry partner): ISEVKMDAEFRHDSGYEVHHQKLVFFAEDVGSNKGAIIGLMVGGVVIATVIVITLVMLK
T2 sequence (P62871 whole entry partner): as the sequence (P62871 whole entry partner) above
T2 sequence (P63212 1-68 partner): as the sequence (P63212 1-68 partner) above
Sequence of recombinant full-length APP695 expressed in Sf9 cells (receptor) (chain): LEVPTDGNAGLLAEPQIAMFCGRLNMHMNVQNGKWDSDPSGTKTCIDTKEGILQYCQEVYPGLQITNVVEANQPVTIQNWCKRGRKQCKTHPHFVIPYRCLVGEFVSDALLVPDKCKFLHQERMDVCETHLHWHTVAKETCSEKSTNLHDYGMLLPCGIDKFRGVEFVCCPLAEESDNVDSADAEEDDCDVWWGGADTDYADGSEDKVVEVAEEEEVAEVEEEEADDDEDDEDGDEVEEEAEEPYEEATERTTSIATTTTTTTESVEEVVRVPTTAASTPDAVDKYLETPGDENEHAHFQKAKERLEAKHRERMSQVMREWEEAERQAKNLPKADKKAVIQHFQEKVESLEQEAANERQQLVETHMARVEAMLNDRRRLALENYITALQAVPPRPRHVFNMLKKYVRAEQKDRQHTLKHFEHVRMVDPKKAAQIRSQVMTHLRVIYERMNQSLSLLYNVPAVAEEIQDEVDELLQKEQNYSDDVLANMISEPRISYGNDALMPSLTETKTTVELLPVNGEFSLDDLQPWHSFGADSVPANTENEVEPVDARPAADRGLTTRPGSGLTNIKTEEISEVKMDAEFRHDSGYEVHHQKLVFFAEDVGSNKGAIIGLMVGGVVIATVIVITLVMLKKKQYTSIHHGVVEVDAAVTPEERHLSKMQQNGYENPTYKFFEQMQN

Molecule: HHGVVEVDAAVTPEE [RHLSK-deleted]
potency relative to peptide 20 in stimulating Go (Go [1]; [6]): several times less potent than peptide 20

Molecule: TVIVITLVML [APP(639-648), a portion of the transmembrane region of APP]
effect on Go (GTPγS binding) [2]: without effect on Go

Molecule: HGVVEVDAAVTPEERHLSK [H-deleted]
Go-activator function of peptide 20 variants (GTPγS binding to Go at 2 min) (Go [1]; [6]): nullified Go -activator function

Molecule: MQQNGYENPTYKFFEQMQN [APP(677-695), peptide corresponding to C-terminal residues 677-695 of APP695, used as control peptide]
22C11-mediated co-precipitation of Go (APP-Go complex): no discernable effect

Molecule: GVVEVDAAVTPEERHLSK [HH-deleted]
Go-activator function of peptide 20 variants (GTPγS binding to Go at 2 min) (Go [1]; [6]): nullified Go -activator function

Now from value to molecule, other results behind:

effect on Go compared with peptide 20 (Go [1]; absence of phospholipids, presence of 0.07% CHAPS, FIG. 1(e)): no more potent than peptide 20
potency in stimulating Go relative to peptide 20 [2]: 10 times
Molecule: TVIVITLVMLHHGVVEVDAAVTPEERHLSK [peptide 20 linked to a portion of the APP transmembrane region]

amount of reconstituted Go precipitated [3]: 0.05 µg/tube and 0.1 µg/tube
Molecule: recombinant full-length APP695 expressed in Sf9 cells (receptor)

stimulation of GTPγS binding to Go (Go [1]; low (≤100 nM) or high (≥10 mM) Mg2+ concentrations): could not be observed
stimulation of c-Ki-ras p21 (c-Ki-ras p21): not stimulated
Molecule: HHGVVEVDAAVTPEERHLSK [peptide 20, peptide corresponding to the His657-Lys676 region of APP]
stimulation of Gi1 (Gi1): not stimulated
stimulation of Gi3 (Gi3): not stimulated
22C11-mediated co-precipitation of Go (APP-Go complex): prevents the 22C11-mediated co-precipitation of Go
precipitation of APP by 22C11 (APP-Go complex): did not affect the precipitation of APP by 22C11
rate constant of GTPγS binding to Go (Go [1]; 10 nM Go, increasing peptide concentrations, FIG. 1(d)): stimulated the rate constant of GTPγS binding to Go in a dose-dependent manner
stimulation of GTPγS binding to Go (Go [1]; purified trimeric go): 2-3 fold
stimulation of GS (GS): not stimulated
ability to activate Go during storage (Go [4]): gradually decreased during storage
stimulation of Gi2 (Gi2): not stimulated
stimulation of smg p25A (smg p25A): not stimulated

GTPγS binding to Go reconstituted in phospholipid vesicles (times greater potency than peptide 20) [5]: 10
Molecule: TVIVITLVMLHHGVVEVDAAVTPEERHLSK [transmembrane region-connected peptide 20]

— patent US5578451A, “Methods and systems for screening potential alzheimer's disease therapeutics” (The General Hospital Corporation, priority 1995, dated 1996)
